Values of other authors in patent publication US12150974B2, “Conjugates with inhibitory receptor ligands to induce anergy in insulin-binding B cells” (University of Kansas, priority 2021, dated 2024).

Target: T1, CD20 (Homo sapiens, UniProt P11836)
T1 construct: host or cells: B cells of trial patients (endogenous)
T1 sequence (P11836 1-297): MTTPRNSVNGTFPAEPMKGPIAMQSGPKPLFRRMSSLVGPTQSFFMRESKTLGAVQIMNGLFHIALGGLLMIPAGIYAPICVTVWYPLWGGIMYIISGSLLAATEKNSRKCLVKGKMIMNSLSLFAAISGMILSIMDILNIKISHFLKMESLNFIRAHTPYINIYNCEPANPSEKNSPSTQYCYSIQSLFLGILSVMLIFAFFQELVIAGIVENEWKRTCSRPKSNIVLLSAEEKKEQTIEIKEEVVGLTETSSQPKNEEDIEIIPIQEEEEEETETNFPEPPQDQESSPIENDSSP
Details: at 1 year

Substance: rituximab
- clinical outcome in T1D: beta cell preservation
